Consider 3 molecules from patent US20090304721A1 (MEDLMMUNE, published 2009).

The target in experiment [1] is T1, human EphA2 expressed on cells (human, UniProt P29317 24-976). Kind of experiment: cell-based or functional assay.
Experiment [2] has as its target T1, human EphA2 expressed on cells. Kind of experiment: immunofluorescence of HUVEC cells labeled with 50 ug/ml antibody at 4 C, 0 or 20 min at 37 C, fixed, permeabilized, AlexaFluor 488 goat anti-human IgG, DAPI mounting medium.
Experiment [3] shares this target. Kind of experiment: flow cytometry on twelve human cell lines, 1 ug primary antibody per 2x10^5 cells, PE goat anti-human IgG; y axis Mean Fl. Shift (%). As to the method:
(§1) The cells were then washed 2× with cold PBS and stained for 30 minutes at 4° C. with secondary Abs (Phycoerythin conjugated goat-a-human IgG, Biosource). Fluorescence analysis was performed using a FACS Calibur flow cytometer (BD Biosciences).
A general note: In flow cytometry, cells or beads pass a laser one at a time.

The target of experiment [4] is T2, mouse EphA2 expressed on cells (mouse, UniProt Q03145 26-977).
T2 construct: whole, on cells
T2 sequence (Q03145 26-977): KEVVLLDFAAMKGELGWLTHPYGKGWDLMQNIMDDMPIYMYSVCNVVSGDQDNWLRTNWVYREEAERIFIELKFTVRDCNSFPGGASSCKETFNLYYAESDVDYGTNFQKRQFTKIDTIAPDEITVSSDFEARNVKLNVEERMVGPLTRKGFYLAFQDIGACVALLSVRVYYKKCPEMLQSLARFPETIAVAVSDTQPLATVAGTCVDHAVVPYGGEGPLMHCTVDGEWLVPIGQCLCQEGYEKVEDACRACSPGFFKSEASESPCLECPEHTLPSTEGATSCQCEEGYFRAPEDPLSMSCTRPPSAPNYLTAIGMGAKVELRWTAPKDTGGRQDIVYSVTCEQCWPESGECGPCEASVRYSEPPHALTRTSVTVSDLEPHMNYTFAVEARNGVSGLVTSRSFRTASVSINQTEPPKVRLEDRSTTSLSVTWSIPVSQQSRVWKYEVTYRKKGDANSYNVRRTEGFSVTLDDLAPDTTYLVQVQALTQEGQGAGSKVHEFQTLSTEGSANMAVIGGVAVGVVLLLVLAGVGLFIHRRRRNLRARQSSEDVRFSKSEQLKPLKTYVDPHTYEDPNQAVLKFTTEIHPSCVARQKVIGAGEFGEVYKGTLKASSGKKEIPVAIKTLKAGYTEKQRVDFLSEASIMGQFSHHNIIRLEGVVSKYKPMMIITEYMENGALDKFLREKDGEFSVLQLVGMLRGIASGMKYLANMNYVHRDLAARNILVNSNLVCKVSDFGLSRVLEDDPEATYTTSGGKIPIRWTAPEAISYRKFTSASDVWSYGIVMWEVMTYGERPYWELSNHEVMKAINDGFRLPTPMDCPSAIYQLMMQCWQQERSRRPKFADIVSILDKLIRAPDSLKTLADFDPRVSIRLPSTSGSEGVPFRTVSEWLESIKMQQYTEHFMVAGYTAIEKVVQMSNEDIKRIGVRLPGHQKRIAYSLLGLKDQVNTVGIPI
Kind of experiment: flow cytometry on tumor cell lines, 1 ug antibody, PE anti-human IgG. As to the method: as §1

T1 sequence (P29317 24-976): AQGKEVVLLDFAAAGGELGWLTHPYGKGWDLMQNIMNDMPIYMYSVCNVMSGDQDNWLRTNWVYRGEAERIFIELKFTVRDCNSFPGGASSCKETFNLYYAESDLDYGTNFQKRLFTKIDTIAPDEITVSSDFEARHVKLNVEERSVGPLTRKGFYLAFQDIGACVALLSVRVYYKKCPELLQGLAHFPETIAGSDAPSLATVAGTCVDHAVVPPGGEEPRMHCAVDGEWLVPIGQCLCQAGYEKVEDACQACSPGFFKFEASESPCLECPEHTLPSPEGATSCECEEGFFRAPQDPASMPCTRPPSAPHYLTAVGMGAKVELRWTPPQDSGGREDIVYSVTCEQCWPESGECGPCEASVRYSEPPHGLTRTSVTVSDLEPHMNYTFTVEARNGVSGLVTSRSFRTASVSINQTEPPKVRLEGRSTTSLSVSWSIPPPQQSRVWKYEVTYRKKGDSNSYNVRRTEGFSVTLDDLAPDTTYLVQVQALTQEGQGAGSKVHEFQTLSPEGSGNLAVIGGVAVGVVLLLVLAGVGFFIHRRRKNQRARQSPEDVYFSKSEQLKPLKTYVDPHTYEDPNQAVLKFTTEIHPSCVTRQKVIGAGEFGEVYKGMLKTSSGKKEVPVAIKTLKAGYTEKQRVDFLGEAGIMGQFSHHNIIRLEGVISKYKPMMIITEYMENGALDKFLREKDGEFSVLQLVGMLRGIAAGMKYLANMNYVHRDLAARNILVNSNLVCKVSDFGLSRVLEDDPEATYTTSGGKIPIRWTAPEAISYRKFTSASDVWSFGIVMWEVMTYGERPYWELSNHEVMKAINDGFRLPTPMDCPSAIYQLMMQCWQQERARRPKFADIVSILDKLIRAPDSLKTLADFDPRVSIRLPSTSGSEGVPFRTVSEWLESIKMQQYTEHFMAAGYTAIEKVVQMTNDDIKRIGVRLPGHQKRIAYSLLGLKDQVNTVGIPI

B1: 3F2mcMMAF (antibody, V domains shown)
VH: EVQLVESGGGVVRPGGSLRLSCAASGFTVSDYSMNWVRQAPGKGLEWIGFIRNKANAYTTEYSASVKGRFTISRDDSKNTLYLQMNSLKTEDTAVYYCTTYPRYHAMDSWGQGTMVTVSS
VL: AIQLTQSPSSLSASVGDRVTITCRASQSISNNLHWYLQKPGQSPQLLIYYGFQSISGVPSRFSGSGSGTDFTLTISSLQPEDFATYYCQQANSWPLTFGGGTKLEIK
modifications: antibody conjugated to monomethylauristatin F (MMAF) through a maleimidocaproyl-citrulline (mc) linker; attachment residues not stated
In the case of B1, in experiment [1], the “IC50 (read off the curve), growth inhibition of MCF10-A cells” value is roughly 20 nM.

B2: anti-EphA2 antibody 3F2 (antibody, V domains shown)
VH: B1 VH
VL: B1 VL
notes: Humanized agonistic monoclonal antibody
As for B2, in experiment [2], the binding result is on record as “binds”.

B3: anti-EphA2 antibody 1H3 (antibody, V domains shown)
VH: EVQLLESGGGLVQPGGSLRLSCAASGFTFSMYAMRWVRQAPGKGLEWVSVIGPSGGWTPYADSVKGRFTISRDNSKNTLYLQMNSLRAEDTAVYYCARDRGIYGMDVWGQGTTVTVSS
VL: DIQMTQSPSFLSASVGDRVTITCRASQGISSYLAWYQQKPGKAPKLLIYAASTLQSGVPSRFSGSGSGTEFTLTISSLQPEDFATYYCLELNNYPFTFGLGTKVHIK
With B3, the binding result in experiment [3] and in experiment [4] was “binds” each time.
